The values below come from patent US20140011978A1 (EPFL TTO, published 2014).

The target in assay [1] is T1, TNC III1-5 (human, UniProt P24821 622-1074).
T1 construct: The secreted protein in the assays lacks the leader; also called TG-TNC III1-5; engineered TNC III1-5
T1 sequence: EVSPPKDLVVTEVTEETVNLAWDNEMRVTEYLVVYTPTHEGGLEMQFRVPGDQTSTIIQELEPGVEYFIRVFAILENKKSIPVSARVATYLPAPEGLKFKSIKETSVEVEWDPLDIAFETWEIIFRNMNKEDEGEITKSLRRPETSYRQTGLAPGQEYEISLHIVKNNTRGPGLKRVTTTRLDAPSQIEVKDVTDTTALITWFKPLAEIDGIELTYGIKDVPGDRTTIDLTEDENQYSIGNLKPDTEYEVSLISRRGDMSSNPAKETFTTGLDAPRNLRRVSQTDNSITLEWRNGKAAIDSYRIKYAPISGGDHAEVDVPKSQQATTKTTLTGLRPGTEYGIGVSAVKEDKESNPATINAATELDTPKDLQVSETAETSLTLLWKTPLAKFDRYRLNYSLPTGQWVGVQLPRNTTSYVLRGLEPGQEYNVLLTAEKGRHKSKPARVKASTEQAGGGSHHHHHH
The assay can be described thus: ELISA: cytokine coated (50 nM), 100 nM TNC III1-5 in solution, HRP-anti-His, A450; black bars without, white bars with 4 µM heparin. Here is the method:
(§1) ELISA plates were coated with cytokines or BSA and further incubated with TNC III1-5 to analyze binding of TNC III1-5 to a wide variety of cytokines. […] A large amount of heparin (4 μM) impaired binding of TNC III1-5 to these cytokines. Results are depicted in FIG. 3. Method: 50 nM of cytokine was coated for (1 hr, 37° C.). After blocking with 2% BSA (1 hr, RT). 100 nM TNC III1-5 was applied in PBST (0.05% tween, 0.1% bovine serum albumin (BSA)) (1 hr, RT). TNC III1-5 was detected with horseradish peroxidase (HRP)-anti-HIS in PBST (1 hr, RT) and developed with 3,3′,5,5′-tetramethylbenzidine (TMB), a soluble colorimetric HRP […]. Addition of sulfuric acid stop solution changes the color to yellow, enabling accurate measurement of the intensity at 450 nm using a spectrophotometer or plate reader. […] Heparin (4 μM) was added to TNC III1-5 to test the effect of blocking the heparin binding site of TNC III1-5, which has been defined as domain TNC III5 (Weber, Zimmermann, et al., 1995).

Assay [2] has as its target T1, TNC III1-5. The assay can be described thus: ELISA: cytokine coated (50 nM), 100 nM TNC III1-5 in solution, HRP-anti-His, A450. On the procedure: as §1
Background: An ELISA detects its analyte on a solid surface through an enzyme-linked reagent.

In assay [3] the target is T2, PDGF-BB (UniProt P01127 82-190).
T2 construct: The name implies a homodimer of B chains
The assay can be described thus: ELISA: GST-fused TNC domains, GST and BSA coated, 2 nM PDGF-BB in solution, anti-PDGF-BB antibody and HRP secondary, A450. Here is the method: An ELISA was performed to test the affinity of different domains present in TNC1-5 to PDGF-BB as an example cytokine that has shown to bind TNC III1-5. Domain TNC III5 was defined to be responsible for cytokine binding. Method: ELISA plates were coated with individual TNC domains fused to GST, as well as GST and BSA. Wells were blocked with BSA and then incubated with 2 nM PDGF-BB. Binding of PDGF-BB was detected using an anti-PDGF-BB antibody and then a secondary horseradish peroxidase conjugated antibody.

T2 sequence (P01127 82-190 limits assumed): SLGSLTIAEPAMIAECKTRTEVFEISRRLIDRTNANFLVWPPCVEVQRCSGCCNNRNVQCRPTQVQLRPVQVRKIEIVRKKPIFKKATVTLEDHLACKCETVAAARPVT

B1: FGF-18 (ligand, UniProt O76093 28-207, looked up)
chain: EENVDFRIHVENQTRARDDVSRKQLRLYQLYSRTSGKHIQVLGRRISARGEDGDKYAQLLVETDTFGSQVRIKGKETEFYLCMNRKGKLVGKPDGTSKECVFIEKVLENNYTALMSAKYSGWYVGFTKKGRPRKGPKTRENQQDVHFMKRYPKGQPELQKPFKYTTVTKRSRRIRPTHPA
Turning to B1, the binding result in assay [1] is given as “binds”.

B2: PlGF-2 (ligand, UniProt P49763-3 19-170, looked up)
chain: LPAVPPQQWALSAGNGSSEVEVVPFQEVWGRSYCRALERLVDVVSEYPSEVEHMFSPSCVSLLRCTGCCGDENLHCVPVETANVTMQLLKIRSGDRPSYVELTFSQHVRCECRPLREKMKPERRRPKGRGKRRREKQRPTDCHLCGDAVPRR
With B2, in assay [1], the binding result is recorded as “binds”.

B3: FGF-20 (ligand)
chain: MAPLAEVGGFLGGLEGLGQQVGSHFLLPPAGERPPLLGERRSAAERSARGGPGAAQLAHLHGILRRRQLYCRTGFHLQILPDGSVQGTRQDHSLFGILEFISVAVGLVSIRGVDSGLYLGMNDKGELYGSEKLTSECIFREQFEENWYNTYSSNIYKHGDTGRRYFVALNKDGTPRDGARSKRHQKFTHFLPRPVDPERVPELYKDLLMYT
With B3, the binding result in assay [2] is reported as “no binding (tested: 100 nM)”.

B4: FGF-10 (ligand, UniProt O15520 38-208, looked up)
chain: QALGQDMVSPEATNSSSSSFSSPSSAGRHVRSYNHLQGDVRWRKLFSFTKYFLKIEKNGKVSGTKKENCPYSILEITSVEIGVVAVKAINSNYYLAMNKKGKLYGSKEFNNDCKLKERIEENGYNTYASFNWQHNGRQMYVALNGKGAPRRGQKTRRKNTSAHFLPMVVHS
Take B4: the binding result in assay [1] is listed as “binds”.

B5: TGF-β2 (ligand, UniProt P61812 303-414, looked up)
chain: ALDAAYCFRNVQDNCCLRPLYIDFKRDLGWKWIHEPKGYNANFCAGACPYLWSSDTQHSRVLSLYNTINPEASASPCCVSQDLEPLTILYYIGKTPKIEQLSNMIVKSCKCS
As for B5, the binding result in assay [1] was “binds”.

B6: TNC III3 (other, human, UniProt P24821 805-894, looked up)
GST fusion: APSQIEVKDVTDTTALITWFKPLAEIDGIELTYGIKDVPGDRTTIDLTEDENQYSIGNLKPDTEYEVSLISRRGDMSSNPAKETFTTGLD
notes: domain fragment; also called TNC III3 fused to GST
For the molecule B6, in assay [3], the binding result is “no binding (tested: 2 nM PDGF-BB)”.

B7: FGF-4 (ligand, UniProt P08620 31-206, looked up)
chain: APTAPNGTLEAELERRWESLVALSLARLPVAAQPKEAAVQSGAGDYLLGIKRLRRLYCNVGIGFHLQALPDGRIGGAHADTRDSLLELSPVERGVVSIFGVASRFFVAMSSKGKLYGSPFFTDECTFKEILLPNNYNAYESYKYPGMFIALSKNGKTKKGNRVSPTMKVTHFLPRL
Regarding B7, in assay [1], the binding result is reported as “binds”.

B8: BDNF (ligand, UniProt P23560 129-247, looked up)
chain: HSDPARRGELSVCDSISEWVTAADKKTAVDMSGGTVTVLEKVPVSKGQLKQYFYETKCNPMGYTKEGCRGIDKRHWNSQCRTTQSYVRALTMDSKKRIGWRFIRIDTSCVCTLTIKRGR
notes: also called brain-derived neurotrophic factor
Regarding B8, the binding result in assay [1] is recorded as “binds”.

B9: VEGF-C (ligand, UniProt P49767 112-227, looked up)
chain: AHYNTEILKSIDNEWRKTQCMPREVCIDVGKEFGVATNTFFKPPCVSVYRCGGCCNSEGLQCMNTSTSYLSKTLFEITVPLSQGPKPVTISFANHTSCRCMSKLDVYRQVHSIIRR
Regarding B9, the binding result in assay [1] was “binds”.

B10: TNC III5 fused to GST (other, human, UniProt P24821 991-1074, looked up)
chain: LQVSETAETSLTLLWKTPLAKFDRYRLNYSLPTGQWVGVQLPRNTTSYVLRGLEPGQEYNVLLTAEKGRHKSKPARVKASTEQA
notes: domain: TNC III5; also called domain TNC III5; not shown: GST
For the molecule B10, the binding result in assay [3] is “binds”.

B11: EGF (ligand)
chain: NSDSECPLSHDGYCLHDGVCMYIEALDKYACNCVVGYIGERCQYRDLKWWELR
Turning to B11, the binding result in assay [2] was “no binding (tested: 100 nM)”.

B12: VEGF-A165 (ligand, UniProt P15692-4 27-191, looked up)
chain: APMAEGGGQNHHEVVKFMDVYQRSYCHPIETLVDIFQEYPDEIEYIFKPSCVPLMRCGGCCNDEGLECVPTEESNITMQIMRIKPHQGQHIGEMSFLQHNKCECRPKKDRARQENPCGPCSERRKHLFVQDPQTCKCSCKNTDSRCKARQLELNERTCRCDKPRR
For B12, the binding result in assay [1] is on record as “binds”.

B13: TGF-β3 (ligand)
chain: ALDTNYCFRNLEENCCVRPLYIDFRQDLGWKWVHEPKGYYANFCSGPCPYLRSADTTHSTVLGLYNTLNPEASASPCCVPQDLEPLTILYYVGRTPKVEQLSNMVVKSCKCS
modifications: Natural form is a disulfide-linked homodimer; one protomer is given.
Regarding B13, the binding result in assay [2] is “no binding (tested: 100 nM)”.

B14: BMP-2 (ligand, UniProt P12643 283-396, looked up)
chain: QAKHKQRKRLKSSCKRHPLYVDFSDVGWNDWIVAPPGYHAFYCHGECPFPLADHLNSTNHAIVQTLVNSVNSKIPKACCVPTELSAISMLYLDENEKVVLKNYQDMVVEGCGCR
Regarding B14, the binding result in assay [1] is listed as “binds”.

B15: FGF-6 (ligand, UniProt P10767 38-208, looked up)
chain: SPAGTRANNTLLDSRGWGTLLSRSRAGLAGEIAGVNWESGYLVGIKRQRRLYCNVGIGFHLQVLPDGRISGTHEENPYSLLEISTVERGVVSLFGVRSALFVAMNSKGRLYATPSFQEECKFRETLLPNNYNAYESDLYQGTYIALSKYGRVKRGSKVSPIMTVTHFLPRI
Take B15: the binding result in assay [1] is “binds”.

B16: TNC III4 (other, human, UniProt P24821 895-990, looked up)
GST fusion: APRNLRRVSQTDNSITLEWRNGKAAIDSYRIKYAPISGGDHAEVDVPKSQQATTKTTLTGLRPGTEYGIGVSAVKEDKESNPATINAATELDTPKD
notes: domain fragment; also called TNC III4 fused to GST
As to B16, in assay [3], the binding result is listed as “binds”.

B17: FGF-17 (ligand, UniProt O60258 23-216, looked up)
chain: TQGENHPSPNFNQYVRDQGAMTDQLSRRQIREYQLYSRTSGKHVQVTGRRISATAEDGNKFAKLIVETDTFGSRVRIKGAESEKYICMNKRGKLIGKPSGKSKDCVFTEIVLENNYTAFQNARHEGWFMAFTRQGRPRQASRSRQNQREAHFIKRLYQGQLPFPNHAEKQKQFEFVGSAPTRRTKRTRRPQPLT
Take B17: in assay [1], the binding result is “binds”.

B18: FGF-7 (ligand, UniProt P21781 32-194, looked up)
chain: CNDMTPEQMATNVNCSSPERHTRSYDYMEGGDIRVRRLFCRTQWYLRIDKRGKVKGTQEMKNNYNIMEIRTVAVGIVAIKGVESEFYLAMNKEGKLYAKKECNEDCNFKELILENHYNTYASAKWTHNGGEMFVALNQKGIPVRGKKTKKEQKTAHFLPMAIT
Turning to B18, the binding result in assay [1] is listed as “binds”.
